Reference: US20240352434, “COMPOSITIONS COMPRISING A VARIANT CAS12I3 POLYPEPTIDE AND USES THEREOF” (Arbor Biotechnologies, Inc., published 2024)
Where a chain is given by its changes, count along the chain named.

T1: Cas12i3 K583R N711R C724R (Unidentified, K583R,N711R,C724R)
T1 chain: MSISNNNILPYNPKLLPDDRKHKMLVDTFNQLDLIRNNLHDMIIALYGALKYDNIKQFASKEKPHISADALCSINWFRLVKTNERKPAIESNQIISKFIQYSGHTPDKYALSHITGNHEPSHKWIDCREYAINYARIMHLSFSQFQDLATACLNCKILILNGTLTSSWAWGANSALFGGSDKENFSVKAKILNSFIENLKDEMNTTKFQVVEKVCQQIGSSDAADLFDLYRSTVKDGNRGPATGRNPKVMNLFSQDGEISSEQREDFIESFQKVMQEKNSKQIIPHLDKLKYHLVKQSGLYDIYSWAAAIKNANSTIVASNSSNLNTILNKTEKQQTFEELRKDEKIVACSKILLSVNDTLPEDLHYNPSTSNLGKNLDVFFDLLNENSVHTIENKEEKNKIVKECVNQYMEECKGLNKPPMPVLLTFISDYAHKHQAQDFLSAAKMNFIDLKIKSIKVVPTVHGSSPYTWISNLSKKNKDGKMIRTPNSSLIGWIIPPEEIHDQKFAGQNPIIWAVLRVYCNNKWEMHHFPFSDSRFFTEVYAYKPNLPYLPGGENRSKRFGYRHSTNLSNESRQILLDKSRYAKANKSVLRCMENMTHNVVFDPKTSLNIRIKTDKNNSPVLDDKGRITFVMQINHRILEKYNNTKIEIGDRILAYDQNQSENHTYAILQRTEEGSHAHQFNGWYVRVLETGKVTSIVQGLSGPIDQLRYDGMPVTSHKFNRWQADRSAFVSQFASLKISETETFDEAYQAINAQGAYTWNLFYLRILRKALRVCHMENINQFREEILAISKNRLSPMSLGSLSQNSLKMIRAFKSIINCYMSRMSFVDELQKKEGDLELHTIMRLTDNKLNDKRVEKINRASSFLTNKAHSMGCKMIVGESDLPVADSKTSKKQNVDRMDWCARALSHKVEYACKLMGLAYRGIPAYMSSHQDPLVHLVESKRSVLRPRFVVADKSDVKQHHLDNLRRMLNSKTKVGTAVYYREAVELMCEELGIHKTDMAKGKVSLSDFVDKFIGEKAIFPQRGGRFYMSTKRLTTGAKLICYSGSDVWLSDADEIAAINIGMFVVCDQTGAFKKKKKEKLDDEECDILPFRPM

T2: Cas12i3 S536R N711R S801R (Unidentified, S536R,N711R,S801R)
T2 chain: T1 chain with S536R, R583K, R724C, S801R

B1: AAVS1_T3 crRNA ; AAVS1_T3 target (ssRNA ; dsDNA)
RNA: AUAGUGUGUCCUUAGUUGACAUGUGAGAAUGGUGCGUCCUAG
DNA 1: GTGAGAATGGTGCGTCCTAG
DNA 2: CTAGGACGCACCATTCTCAC
B2: VEGFA_T2 crRNA ; VEGFA_T2 target (ssRNA ; dsDNA)
RNA: AUAGUGUGUCCUUAGUUGACAUAAUCCUCCACCAGUCAUGGU
DNA 1: AATCCTCCACCAGTCATGGT
DNA 2: ACCATGACTGGTGGAGGATT
B3: EMX1_T5 crRNA ; EMX1_T5 target (ssRNA ; dsDNA)
RNA: AUAGUGUGUCCUUAGUUGACAUUAUUAUUCCCAUAGGGAAGG
DNA 1: TATTATTCCCATAGGGAAGG
DNA 2: CCTTCCCTATGGGAATAATA

Target: T1, Cas12i3 K583R N711R C724R
Experiment: cell_activity; fold change in % indels, HEK293T; PAM not stated in example
In short: (§1)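 HEK293T cells lipofected with Lipofectamine 2000 (crRNA omitted in negative controls). Harvested 72 h post-transfection and lysed in QuickExtract. Target loci amplified by two-round PCR and sequenced on NextSeq (150 cycles) to quantify % indels.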

| Binder | binding signal |
| --- | --- |
| B1 | 2.96 fold of wild-type |
| B2 | 2.57 fold of wild-type |
| B3 | 1.99 fold of wild-type |

Target: T2, Cas12i3 S536R N711R S801R
Experiment: as above
In short: as §1

| Binder | binding signal |
| --- | --- |
| B1 | 2.1 fold of wild-type |
| B2 | 2.55 fold of wild-type |
| B3 | 1.68 fold of wild-type |
